According to US5962294A, “Compositions and methods for the identification and synthesis of sialyltransferases” (The Regents of the University of California, priority 1993, dated 1999):

What was measured:
[1] = molecular target: T1, human ST3N (Homo sapiens, UniProt Q11203); experiment: Acceptor specificity of soluble human ST3N (protein A fusion from COS-1 cells, on IgG Sepharose); conditions: acceptor 0.2 mM; relative to LNT
T1 sequence (Q11203 62-375): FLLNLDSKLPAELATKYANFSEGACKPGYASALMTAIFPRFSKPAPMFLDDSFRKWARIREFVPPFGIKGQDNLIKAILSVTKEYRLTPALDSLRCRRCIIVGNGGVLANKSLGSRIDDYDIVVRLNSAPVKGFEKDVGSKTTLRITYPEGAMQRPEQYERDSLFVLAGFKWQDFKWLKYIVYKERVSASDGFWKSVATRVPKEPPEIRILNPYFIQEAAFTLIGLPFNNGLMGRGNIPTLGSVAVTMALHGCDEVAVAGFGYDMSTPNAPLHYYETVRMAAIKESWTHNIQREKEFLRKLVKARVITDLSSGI

[2] = molecular target: T2, ST3N (Rattus norvegicus, UniProt Q02734); experiment: Acceptor specificity of ST3N (Table 4)
T2 sequence (Q02734 29-374 limits assumed): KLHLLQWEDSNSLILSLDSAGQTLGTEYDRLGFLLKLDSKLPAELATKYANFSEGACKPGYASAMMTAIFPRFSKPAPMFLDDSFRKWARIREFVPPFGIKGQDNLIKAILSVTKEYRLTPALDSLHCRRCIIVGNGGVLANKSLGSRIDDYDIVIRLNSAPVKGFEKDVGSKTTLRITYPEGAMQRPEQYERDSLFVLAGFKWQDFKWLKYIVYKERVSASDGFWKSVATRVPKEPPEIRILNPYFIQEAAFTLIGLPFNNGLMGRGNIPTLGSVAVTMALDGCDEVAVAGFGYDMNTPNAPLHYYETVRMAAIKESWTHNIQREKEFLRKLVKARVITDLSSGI

[3] = molecular target: T3, ST3O (Sus scrofa, UniProt Q02745); experiment: Acceptor specificity of ST3O (Table 4); conditions: acceptor 0.2 mM
T3 sequence (Q02745 28-343 limits assumed): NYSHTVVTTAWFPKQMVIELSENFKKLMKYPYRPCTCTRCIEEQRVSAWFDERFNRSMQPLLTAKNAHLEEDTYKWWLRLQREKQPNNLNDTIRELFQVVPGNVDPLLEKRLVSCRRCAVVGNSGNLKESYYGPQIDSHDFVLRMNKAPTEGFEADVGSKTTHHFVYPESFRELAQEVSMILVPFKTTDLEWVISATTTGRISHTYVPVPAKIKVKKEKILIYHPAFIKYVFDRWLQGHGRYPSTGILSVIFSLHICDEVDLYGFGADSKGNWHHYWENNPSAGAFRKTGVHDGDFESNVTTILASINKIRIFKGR

[4] = molecular target: T4, rat ST3N (Rattus norvegicus, UniProt Q02734); experiment: Acceptor specificity of soluble rat ST3N fusion protein (Table 3); conditions: acceptor 0.2 mM; relative to LNT
T4 sequence (Q02734 29-374 limits assumed): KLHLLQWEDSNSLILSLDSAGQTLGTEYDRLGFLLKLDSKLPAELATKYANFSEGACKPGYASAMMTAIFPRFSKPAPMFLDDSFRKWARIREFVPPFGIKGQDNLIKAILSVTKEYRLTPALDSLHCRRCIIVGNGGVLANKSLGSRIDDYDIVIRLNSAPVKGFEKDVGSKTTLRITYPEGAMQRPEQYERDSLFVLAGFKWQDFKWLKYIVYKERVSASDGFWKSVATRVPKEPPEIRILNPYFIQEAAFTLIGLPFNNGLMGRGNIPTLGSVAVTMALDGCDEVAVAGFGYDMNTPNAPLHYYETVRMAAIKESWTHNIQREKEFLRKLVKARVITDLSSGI

[5] = molecular target: [14C]NeuAc labeled α1-acid glycoprotein produced from the asialo-derivative using ST6N enzyme
[6] = molecular target: [14C]NeuAc labeled α1-acid glycoprotein produced from the asialo-derivative using ST3N enzyme
[7] = molecular target: [14C]NeuAc labeled α1-acid glycoprotein produced from the asialo-derivative using ST3 enzyme
[8] = molecular target: ovine submaxillary asialo-mucin (GalNAc-Thr/Ser) (ovine)
[9] = molecular target: antifreeze glycoprotein (Galβ1,3GalNAc-Thr)
[10] = molecular target: asialofetuin (Galβ1,3GalNAc-Thr/Ser and Galβ1,4GlcNAc-R)
[11] = molecular target: asialo-α1-acid glycoprotein (Galβ1,4GlcNAc-R)
[12] = molecular target: asialo-α1-acid glycoprotein (Galβ1,4GlcNAc-R); remark: listed apart in the source
[13] = system: sialidase from Newcastle disease virus; assay type: biochemical; conditions: product formed by the named enzyme, hydrolyzed with Newcastle disease virus sialidase
[14] = system: acceptor substrate antifreeze glycoprotein (AFGP); experiment: Sialyltransferase activity of purified porcine liver α2,3-0 sialyltransferase; assay type: biochemical; conditions: after third CDP-hexanolamine agarose column
Excerpt: FIG. 4 Purification of the α2,3-0 sialyltransferase on CDP-hexanolamine agarose (column III, CDP elution). […] In columns A and B elution of enzyme activity correlated predominantly with 48 kDa and a 45 kDa protein species, respectively (see inset, SDS-PAGE). These two species, form A and form B of the α2,3 sialyltransferase, had specific activities of 8-10 units/mg protein. The 48 kDA and 45 kDA species were blotted to a PVDF membrane and analyzed by NH2 -terminal sequencing.
The enzyme was purified from a porcine liver Triton X-100 extract by affinity chromatography on three successive columns of CDP-hexanolamineagarose. The elution profile from the first and third purification steps are shown in FIG. 3 and FIG. 4, respectively. […] These two peaks were separated by combining the indicated fractions into pools A and B, these two pools were subsequently found to be enriched in two different molecular weight forms of the α2,3-0 sialyltransferase.
The membranes were extracted three times with buffer (Conradt, H. S. et al., in Sialic Acids 1988 Proceedings of the Japanese-German Symposium on Sialic Acids (Schauer and Yamakawa, eds.) pp. 104-105, Verlag Wissenschaft and Bildung, Kiel [1988]) and the extract was passed over a 1.5 l CDP-hexanolamine agarose column (column 1) (16 umol/ml). After washing the column with 3 L buffer B, the column was eluted with a linear gradient of 0.05 to 1.0 M KCL (2.5 l×2.5 l) in buffer B. Fractions containing α2,3 sialyltransferase were combined into two pools A and B, representing the main part and the trailing end of the peak, respectively (see FIG. 3). The pools were dialysed against buffer B and subjected to another round of affinity chromatography on CDP-hexanolamine agarose (columns IIA and IIB). A 150 ml column was used for pool A and a 30 ml column was used for pool B; two preparations from column I (from total of 4 kg liver) were loaded on the same column in step II. […]

[15] = system: acceptor substrate antifreeze glycoprotein (AFGP); conditions: Rearick et al. 1979; cited from earlier work
[16] = molecular target: T5, (Sus scrofa, UniProt Q02745); experiment: Sialyltransferase activity in media of COS-1 cells transfected with sp-ST; conditions: 48 hours post-transfection, media concentrated
T5 sequence (Q02745 28-343 limits assumed): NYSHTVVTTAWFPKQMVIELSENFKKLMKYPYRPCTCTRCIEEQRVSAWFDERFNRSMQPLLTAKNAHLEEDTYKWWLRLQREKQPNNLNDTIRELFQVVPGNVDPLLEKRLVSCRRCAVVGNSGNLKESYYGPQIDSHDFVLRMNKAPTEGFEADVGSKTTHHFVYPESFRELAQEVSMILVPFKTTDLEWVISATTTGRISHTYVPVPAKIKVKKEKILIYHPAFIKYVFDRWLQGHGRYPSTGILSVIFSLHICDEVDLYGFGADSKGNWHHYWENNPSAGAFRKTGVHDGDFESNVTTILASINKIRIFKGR

In the case of `CC(=O)N[C@H]1C(O)O[C@H](CO)[C@@H](O[C@@H]2O[C@H](CO)[C@H](O)[C@H](O)[C@H]2O)[C@@H]1O` (some centres unmarked) [Galβ1,4GlcNAc], the “Relative activity (%) Human” value [1] is reported as 22%, the “Relative rate (%) ST3N” value ([2]; acceptor 0.2 mM) is reported as 19% and the “Relative rate (%) ST3N” value ([2]; acceptor 2.0 mM) is reported as 46%. For the same molecule, the “Relative rate (%) ST30” value [3] was 0% and the “Relative activity (%) Rat” value [4] was 19%.

For “sialidase from Newcastle disease virus (Oxford Glycosystems) (enzyme)”, the release of [14C]NeuAc from labeled glycoprotein (% of total 14C NeuAc released) [5] was 0, the release of [14C]NeuAc from labeled glycoprotein (% of total 14C NeuAc released) [6] was 82 and the release of [14C]NeuAc from labeled glycoprotein (% of total 14C NeuAc released) [7] was 83.

In the case of “signal peptide-ST (sp-ST), soluble form of porcine Galβ1,3GalNAc α2,3 sialyltransferase (pSVL-spST) (enzyme)”, the Relative rate (%) of sialic acid transfer, acceptor 0.2 mM [8] is reported as 5%, the Relative rate (%) of sialic acid transfer, acceptor 0.2 mM [9] is reported as 57% and the Relative rate (%) of sialic acid transfer, acceptor 0.2 mM [10] is reported as 26%. For the same molecule, the Relative rate (%) of sialic acid transfer, acceptor 0.2 mM [11] was 0%.

For “soluble protein A/ST3 fusion (expression plasmid AZ3), human ST3 sialyltransferase (from UniProt P02976) (enzyme)”, the Relative rate (%) of sialic acid transfer, acceptor 0.2 mM [8] was 3.8%, the Relative rate (%) of sialic acid transfer, acceptor 0.2 mM [9] was 50% and the Relative rate (%) of sialic acid transfer, acceptor 0.2 mM [10] was 92%. It also gave a Relative rate (%) of sialic acid transfer, acceptor 0.2 mM [11] of 51%.

“soluble protein A/human ST3N fusion (expression plasmid A3NHP), human Galβ1,3(4)GlcNAc α2,3-sialyltransferase (from UniProt P02976) (enzyme)” gave a Relative activity (%), acceptor 0.2 mM [12] of 14%.

B1: ST3: human sialyltransferase of SEQ. ID. NO:12; β-galactoside α2,3-sialyltransferase (protein)
chain: MCPAGWKLLAMLALVLVVMVWYSISREDRYIEPFYFPIPEKKEPCLQGEAESKASKLFGNYSRDQPIFLRLEDYFWVKTPSAYELPYGTKGSEDLLLRVLAITSSSIPKNIQSLRCRRCVVVGNGHRLRNSSLGDAINKYDVVIRLNNAPVAGYEGDVGSKTTMRLFYPESAHFDPKVENNPDTLLVLVAFKAMDFHWIETILSDKKRVRKGFWKQPPLIWDVNPKQIRILNPFFMEIAADKLLSLPMQQPRKIKQKPTTGLLAITLALHLCDLVHIAGFGYPDAYNKKQTIHYYEQITLKSMAGSGHNVSQEALAIKRMLEMGAIKNLTSF
In the case of B1, the “total [14C]NeuAc released from labeled α1-acid glycoprotein product” value (“total [14C]NeuAc released” below) [13] is reported as 83%.

B2: Form B: 45 kDa molecular weight form of the porcine liver α2,3 sialyltransferase (protein)
chain: NYSHTVVTTAWFPKQMVIELSENFKKLMKYPYRPCTCTRCIEEQRVSAWFDERFNRSMQPLLTAKNAHLEEDTYKWWLRLQREKQPNNLNDTIRELFQVVPGNVDPLLEKRLVSCRRCAVVGNSGNLKESYYGPQIDSHDFVLRMNKAPTEGFEADVGSKTTHHFVYPESFRELAQEVSMILVPFKTTDLEWVISATTTGTISHTYVPVPAKIKVKKEKILIYHPAFIKYVFDRWLQGHGRYPSTGILSVIFSLHICDEVDLYGFGADSKGNWHHYWENNPSAGAFRKTGVHDGDFESNVTTILASINKIRIFKGR
In the case of B2, the specific activity [14] is listed as 8-10 units/mg protein and the “catalytic activity (in words)” value [15] is listed as “fully catalytically active”.

B3: sp-ST: fusion of insulin signal sequence, 9 linker amino acids and the catalytic domain of α2,3-0 sialyltransferase (protein)
chain: NYSHTVVTTAWFPKQMVIELSENFKKLMKYPYRPCTCTRCIEEQRVSAWFDERFNRSMQPLLTAKNAHLEEDTYKWWLRLQREKQPNNLNDTIRELFQVVPGNVDPLLEKRLVSCRRCAVVGNSGNLKESYYGPQIDSHDFVLRMNKAPTEGFEADVGSKTTHHFVYPESFRELAQEVSMILVPFKTTDLEWVISATTTGTISHTYVPVPAKIKVKKEKILIYHPAFIKYVFDRWLQGHGRYPSTGILSVIFSLHICDEVDLYGFGADSKGNWHHYWENNPSAGAFRKTGVHDGDFESNVTTILASINKIRIFKGR
With B3 the “sialyltransferase activity in media” value [16] was “contained milliunits/ml of the sialyltransferase”.

B4: rat Galβ1,4GlcNAc α2,6-sialyltransferase (protein)
chain: SKQDPKEDIPILSYHRVTAKVKPQPSFQVWDKDSTYSKLNPRLLKIWRNYLNMNKYKVSYKGPGPGVKFSVEALRCHLRDHVNVSMIEATDFPFNTTEWEGYLPKENFRTKVGPWQRCAVVSSAGSLKNSQLGREIDNHDAVLRFNGAPTDNFQQDVGSKTTIRLMNSQLVTTEKRFLKDSLYTEGILIVWDPSVYHADIPKWYQKPDYNFFETYKSYRRLDPSQPFYILKPQMPWELWDIIQEISADLIQPNPPSSGMLGIIIMMTLCDQVDIYEFLPSKRKTDVCYYHQKFFDSACTMGAYHPLLFEKNMVKHLNEGTDEDIYLFGKATLSGFRNIRC
In the case of B4, the “total [14C]NeuAc released” value [13] is reported as 0%.

B5: rat Galβ1,3(4)GlcNAc α2,3 sialyltransferase (protein)
chain: KLHLLQWEDSNSLILSLDSAGQTLGTEYDRLGFLLKLDSKLPAELATKYANFSEGACKPGYASAMMTAIFPRFSKPAPMFLDDSFRKWARIREFVPPFGIKGQDNLIKAILSVTKEYRLTPALDSLHCRRCIIVGNGGVLANKSLGSRIDDYDIVIRLNSAPVKGFEKDVGSKTTLRITYPEGAMQRPEQYERDSLFVLAGFKWQDFKWLKYIVYKERVSASDGFSKSVATRVPKEPPEIRILNPYFIQEAAFTLIRLPFNNGLMGRGNIPTLGSVAVTMALDGCDEVAVAGFGYDMNTPNAPLHYYETVRMAAIKESWTHNIQREKEFLRKLVKARVITDLSSGI
In the case of B5, the “total [14C]NeuAc released” value [13] is reported as 82%.
